How the values were obtained:
Assay in all cases: Leukocyte mitogenic response (BrdU-based ELISA, stimulation index)
Format in all cases: cell-based
Details in all cases: purified lectin at mitogen concentration (5-40 μg/mL), day 4
[1] = tested on: human immune cells
[2] = tested on: canine immune cells
[3] = tested on: shrimp immune cells
[4] = tested on: salmon immune cells
[5] = tested on: equine immune cells
[6] = tested on: trout immune cells
Text: Lymphocytes are a representative immune system prototypic cell that may be used in in vitro assays for immunological effects of lectins, saponins and other components of natural plant or animal products. Exemplary lymphocytes for representative target species may be obtained and used in the Examples disclosed herein. The effects of various compositions on lymphocyte proliferation is examined using a standard tetrazolium based colorimetric assay (MTT). An Alamar blue-based colorimetric assay gave equivalent results to [^3H]-thymidine incorporation assay. The MTT colorimetric assay has also been used in lymphocyte proliferation assays using chicken splenocytes. These and other known assays may be utilized in the methods disclosed herein.
In one non-limiting example, cells from anterior fish kidney are obtained by forcing the aseptically removed tissue through a 100 μm cell strainer into L-15 medium supplemented with 2% fetal bovine serum (FBS), 100 U mL^−1 penicillin, 100 μg mL^−1 streptomycin, and 10 U mL^−1 sodium heparin (Processing medium, PM). The single-cell suspension is removed from the settled tissue fragments and cells are pelleted by centrifugation at 500×g for 10 min at 4° C. […]
The number of viable kidney or blood leukocytes isolated from each fish is determined by trypan blue exclusion (0.1% trypan blue in PM), and the cells are pelleted as described above.
Mitogen concentrations used to stimulate the isolated leukocytes are as follows: 10 μg mL^−1 SBA, 10 μg mL^−1 PHA-E or PHA-L, 5 μg mL^−1 LBL, 20 μg mL^−1 LCA or LOA, 10 μg mL^−1 ConA, 40 ug mL^−1 PSA and 5 μg mL^−1 PNA. […] The mitogenic response is measured on the fourth day of incubation post-mitogen stimulation using a BrdU-based ELISA at room temperature as described (Gauthier, D. T. 2003). Stimulation index (SI) values are calculated as the replicate mean optical density for a given set of mitogen-treated leukocytes divided by the replicate mean optical density of the associated mitogen free (control) leukocytes. […]

[7] = tested on: feline immune cells
[8] = tested on: bovine immune cells

B1: PSA: small pea (Pisum sativum) lectin (protein, UniProt P02867 31-217; P02867 218-275, looked up)
Lectin beta chain: TETTSFLITKFSPDQQNLIFQGDGYTTKEKLTLTKAVKNTVGRALYSSPIHIWDRETGNVANFVTSFTFVINAPNSYNVADGFTFFIAPVDTKPQTGGGYLGVFNSAEYDKTTQTVAVEFDTFYNAAWDPSNRDRHIGIDVNSIKSVNTKSWKLQNGEEANVVIAFNAATNVLTVSLTYPNSLEEEN
Lectin alpha chain: VTSYTLSDVVSLKDVVPEWVRIGFSATTGAEYAAHEVLSWSFHSELSGTSSSKQAADA
Immunomodulatory effect (stimulation index class) [1]: ++ (between 5 and 9.9 is assigned a value of ++ (moderate mitogen))
Immunomodulatory effect (stimulation index class) [2]: + (between 1 and 4.9 is assigned a value of + (weak mitogen))
Immunomodulatory effect (stimulation index class) [3]: +++ (≧10 is assigned a value of +++ (strong mitogen))
Immunomodulatory effect (stimulation index class) [4]: −− (<1 is assigned a value of −− (anti-mitogenic))
Immunomodulatory effect (stimulation index class) [5]: + (between 1 and 4.9 is assigned a value of + (weak mitogen))
Immunomodulatory effect (stimulation index class) [6]: +++ (≧10 is assigned a value of +++ (strong mitogen))
Immunomodulatory effect (stimulation index class) [7]: −− (<1 is assigned a value of −− (anti-mitogenic))
Immunomodulatory effect (stimulation index class) [8]: +++ (≧10 is assigned a value of +++ (strong mitogen))

B2: PNA: peanut (Arachis hypogaea) lectin (protein, UniProt P02872 24-273, looked up)
Galactose-binding lectin: AETVSFNFNSFSEGNPAINFQGDVTVLSNGNIQLTNLNKVNSVGRVLYAMPVRIWSSATGNVASFLTSFSFEMKDIKDYDPADGIIFFIAPEDTQIPAGSIGGGTLGVSDTKGAGHFVGVEFDTYSNSEYNDPPTDHVGIDVNSVDSVKTVPWNSVSGAVVKVTVIYDSSTKTLSVAVTNDNGDITTIAQVVDLKAKLPERVKFGFSASGSLGGRQIHLIRSWSFTSTLITTTRRSIDNNEKKIMNMASA
Immunomodulatory effect (stimulation index class) [1]: + (between 1 and 4.9 is assigned a value of + (weak mitogen))
Immunomodulatory effect (stimulation index class) [2]: ++ (between 5 and 9.9 is assigned a value of ++ (moderate mitogen))
Immunomodulatory effect (stimulation index class) [3]: −− (<1 is assigned a value of −− (anti-mitogenic))
Immunomodulatory effect (stimulation index class) [4]: +++ (≧10 is assigned a value of +++ (strong mitogen))
Immunomodulatory effect (stimulation index class) [5]: ++ (between 5 and 9.9 is assigned a value of ++ (moderate mitogen))
Immunomodulatory effect (stimulation index class) [6]: −− (<1 is assigned a value of −− (anti-mitogenic))
Immunomodulatory effect (stimulation index class) [7]: +++ (≧10 is assigned a value of +++ (strong mitogen))
Immunomodulatory effect (stimulation index class) [8]: + (between 1 and 4.9 is assigned a value of + (weak mitogen))
